Assay [1] addresses DENV2 E DI/II protein (E domains I and II, E residues 1-291) (dengue virus 2 (New Guinea C strain)).
The target in assay [2] is DENV2 E DI/II H244A (dengue virus 2 (New Guinea C strain)).

The results in this text go back to article PMC2958806.

As to “DENV2 NGC DIII (LDIIIH1CS, E residues 289-430) (domain or fragment)”, the liposome co-floatation of DI/II at low pH in the presence of DIII (no co-floatation when BSA was substituted for DIII) in assay [1] worked out at 25%. With “DENV2 pr peptide (recombinant, prM residues 1-86 with tandem Strep tag) (domain or fragment)”, the liposome co-floatation of H244A DI/II at pH 5.75 with DIII, efficiency of floatation in the presence of pr (43% in the absence of pr) in assay [2] was 47%.
